The values below come from a protein production outcome set (Wang et al. 2014).
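Note: failed if final PepcDB status was selected cloned or expressed and not failed if soluble or beyond.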

The nature of the data set: label from the status in PepcDB records.
Consider “MTDTPVPSEATASGWRRALPVIISLAILAMALHALSSQFTDHGYRQIRQAFRALGAGQIALTLLLGLSSYACLVGFDWVGLKRTGKRLHPARVGITAFMAHAVGQTLGFAALTGGAVRLRGYGSVGLTLAEIGQVVLMSTLGFIFGAWVLLGIALMLEPEAAARALPIAAEGIRIAGIALLAGYLAMLVLVGRHGREFGIRSHRFWLPDRTTVLGVTALSVVELGLAAAAFYVLLPPDPGTGYFGFIGIWLVAVVAGLISTVPAGLGVFEWSLLKLLPHVTPAAVLAAALAYRVTYYIVPLLISVAMAAATGLRAPVRASASTARTVWKTLRPWLPQILALAVFAVGAALVIDGTLPTPRARQEVAPLPLIETSHLLVSLGGMLLLLIGQGLQRRSHSAWVLALGVCVLLPPLSLLRGSHISVSLSAALAAVALWAARREFYRQGALLDEAWSWRWLSNLGLVLVATFWLLFFVYSHVEYSNDLWWQFATSANAPRALRALLILCVGVILFGTARLLRGGRRPMPPADAQALQALAPVLASSADTQACLALTGDKAFLRDEKGLGFVMMQRYGGSLISMGDPVGPPEVARALIWRFREEADHMGLRPVFYQVGEKYWQTYLDMGLTLVKLGEEAIVPLEGFTLEGRDRADLRQAWNRGKRGGLSFRMLQPEQVDAVMAELGEVSEQWLDEKAGEEKGFSLGSFDPDYLRRFPMAVAEAEGKIVAFANVWCAPAGGELSVDLMRHSAQAPKGTMDFLFIELFLWGHANGYTRFSLGMAPLSGLAEHRLAGRWNRFASLVARHGERFYGFSGLRRFKSKFAPTWRPRYLVAPGGMHLPAALLDVTRLISVDPGRQD”, for which the protein production entry is reported as “failed”.
As for “MFQALIDVVLPVFLVIGAGYCTTFAGYFKPEHIDGVMRFTQGFAIPCLLFRAIANLDLNAGFDPALLASFYMAAFLCFTAGLLGARLLFNRDWEDSVAIGFCCLFSNSVLLGLAITERAYGPENLVGNYAIIAIHSPFCYALGITTMEVIRNRGRGGRKMVTSVLNAMFRNVLILGIALGFIVNLSGISLPQIADDALSLIIRAALPGALFALGGVLVQYRPEGDTRVIVYICAISLLLHPGLVWLFGSALALPQDLFRSGVLNAAMAPGFNAYIFANIYGRAKRVAASSVLVATAASILTVWMWLMLLG”, the protein production result is “failed”.
With “MAESGVSVGSESLQLYEAQFFGFTPETCTLRVRDAFRDSLNHILVAVESVFVKRLCPGRDPPAELRLTARESTQKLRQFLQERFEIMFQRMKGMLIDRMLSIPQNVLLPEDQMHQKYPEGKEELTKLQESIAKLLQAYEAEVCSKQALLAELEEQKETQKQLDEVLRWIEELRVSWRREGMGNVQDSVRHMIETVGQLQDVVGKINKQNSALDEV” the entry was “failed”; with “MSHLRIPKNWTIQRSTPFFTKDNVPEALLTHHNTAVDVFGQICVMEGVVTYYGFANSEATEPEIKVVINAGQFATSPPQYWHRIELSDDAQFNINFWSDQDKSGKKMFNTKLEHHHHHH”, “not failed”.
For “MSKVKIELFTSPMCPHCPAAKRVVEEVANEMPDAVEVEYINVMENPQKAMEYGIMAVPTIVINGDVEFIGAPTKEALVEAIKKRL”, the protein production entry is reported as “not failed”.
With “MDLALAPETLARWQFGITTVYHFLFVPLTISLAALTAGLQTAWVRTEKEKYLRATKFWGKLFLINIAMGVVTGIVQEFQFGMNWSDYSRFVGDVFGAPLAFEALIAFFFESTFIGLWIFGWDKLPKKIHLACIWMVSIGTLLSAYFILAANSWMQHPVGYRINEEKGRAELTDFWQVLTQNTTLNQVFHSFSAAFLTGGAFMVGIAAFHLMRKKHIPVMRTSLRLGLVTLAVGGLLTAVSGDTLGKVMYEQQPMKMAAAEALWDGEKPAPFSVFAYGDVDKGHNKVALEVPGLLSFLAHSDFESYVPGINDTNKALQEQFGPGDYKPIVPVAYWGFRWMIGFGMASFSLGLLGLWLTRKRFLLPPALRTGEDEVPHLVLLKKPLGARLTRMYWLLALWTMAFPLIANSWGWIFTEMGRQPWVVYGVMQTRDAVSPGVSTAEVIISMSVFTLLYAVLAVIEVKLLAKYVKAGPPELTEADLNPPTKIGGDLRDADKPMAFSY” the entry was “failed”; with “AIGMALVGTEGQWLQVNKSLSHFLGYSQDELRTMTFQQLTWPEDLNNDLEQLNMLVRGDINSYSMEKRYYTRNGDVVWALLAVSLVRHKDNKPLYFIAQIEDINDLKQSEQENQRLMERITQANDALFQEKERLHITLDSIG”, “failed”.
“MRRVVIRTEALSCPLDGDEDSNELRLRPLVPDAQEWKYPKSKLFPRHAAWSCHSGGGGGGGGGRVFTNKVNAVEEFNLGGLKDSESDSDSE”: the protein production entry is given as “failed”.
As for “MATVTKAPKKQIQFADDMQEFTKFPTKTGRRSLSRSISQSSTDSYSSAASYTDSSDDEVSPREKQQTNSKGSSNFCVKNIKQAEFGRREIEIAEQDMSALISLRKRAQGEKPLAGAKIVGCTHITAQTAVLIETLCALGAQCRWSACNIYSTQNEVAAALAEAGVAVFAWKGESEDDFWWCIDRCVNMDGWQANMILDDGGDLTHWVYKKYPNVFKKIRGIVEESVTGVHRLYQLSKAGKLCVPAMNVNDSVTKQKFDNLYCCRESILDGLKRTTDVMFGGKQVVVCGYGEVGKGCCAALKALGAIVYITEIDPICALQACMDGFRVVKLNEVIRQVDVVITCTGNKNVVTREHLDRMKNSCIVCNMGHSNTEIDVTSLRTPELTWERVRSQVDHVIWPDGKRVVLLAEGRLLNLSCSTVPTFVLSITATTQALALIELYNAPEGRYKQDVYLLPKKMDEYVASLHLPSFDAHLTELTDDQAKYLGLNKNGPFKPNYYRY”, the protein production result is reported as “failed”.
With “MRGPGSASVRGYGQCKDTLHTSSPFHEAPASVRRPRTTGRVHTLGIRAPPPPRSQPEFLFSGNPFAPVSSVQRDAARRVSPRIPSLDQASRRPVAKLVVPGGNGFIGTEICRVAVQNGHEVAAFGRTGRPALTPARHPWVQDVEWRAADVFAPDAWRDLLDGADAVVHTIATIREHPDRNVTFDRVNAESALRAAEAAVAADVGAVVFLSVRDKPPLVPYAFLSAKRRAERALREDHPSLRTVTLCPNLVYGARKTGTPTLAAVLNQAQGMRPHPYATAEGRPLPVEFVAAAAVQAAVTSTMEGTLTVPQIDDIGRTSGLVDPNAASTPSLAPLLVGLGGTALGAWLLRRWRAS” the entry was “failed”.
With “MSFFLTTPAAIDLGVNIDHVATLRNARGTAYPDPVRAALAAEDAGADAITLHLREDRRHIVDADVRTLRPRVKTRMNLECAVTPEMLDIACEIRPHDACLVPEKRSELTTEGGLDVVGHFDAVRAACKQLADAGVRVSLFIDPDEAQIRAAHETGAPVIELHTGRYADAHDAAEQQREFERIATGVDAGIALGLKVNAGHGLHYTNVQAIAALPGIAELNIGHAIVAHAVFVGWDNAVREMKAIMVAARVAALHGGR” the entry was “not failed”; with “MWHIFERFVNEYERWFLVHRFAYLSELQAVKCLLPEGRGVEIGVGTGRFAVPLKIKIGVEPSERMAEIARKRGVFVLKGTAENLPLKDESFDFALMVTTICFVDDPERALKEAYRILKKGGYLIVGIVDRESFLGREYEKNKEKSVFYKNARFFSTEELMDLMRKAGFEEFKVVQTLFKHPSELSEIEPVKEGYGEGAFVVIRGTKK”, “not failed”; with “MIKPELPSNEAERLAALRQYDVLDSPAERAFDDLTMIASTLCETQMAAVVLVDEDRQWFKSAHGAPRSEAPRDISFCAHAILRPDEVLMVDDTLLDPRFHDNPMVVGSGGVRFYAGAPLVTSQGMALGSLCVFDQAPAHLREDQREALQALSRQASQLLELRLAGRQLRQQLHEREWYEQQMAGYYAQMDALHADLVEQTRTDPLTGLPNRRAFAVALAAATEQTRAVGQPLSVALLDVDHFKTVNDVHGHDQGDAVLRELSTLLRAHMAGAGTIARYGGEEFVLLLPNANLLQARVQCEYLRQSVAAMTIALPVTVSIGVATLYPQESVEAVIKRADQALYAAKRGGRDQVVALE”, “failed”.
